The data set is described as follows: yeast display, Sf9 membrane polyspecificity reagent, FACS + sequencing; frameworks hold sequencing errors. Summed up:
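Galactose-induced (36–48 hours) yeast carrying a synthetic nanobody display library were exposed to 10% biotinylated, detergent-solubilized Sf9 membrane reagent at 4 °C for 1 hour. FACS followed streptavidin microbead enrichment, using low and high (top ~1%) gates for expression (anti-HA) and reagent binding (streptavidin). Colony PCR, MiSeq 2 × 250 sequencing and CDR-length filtering followed. Labels for polyreactivity reflect the gate of origin.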
“QVQLVESGGGLDQAGGSLRLSCAASGSIFRGYAMGWYRQAPGKERDLVAAINRSGGRTYYADSVKGRFTISRDNAKNTVYLQMNRLKPEDTAVYYCAADYFFYQPSGYDYWGQGTQVTVSS”: the “polyreactivity (PSR sort gate)” value is “high polyreactivity”.

Take “QVQLVESGGGLDQAGGSLRLSCAASGSIFRNYAMGWYRQAPGKEREFVAAISGGGGSTYYADSVKGRFTISRDNAKNTVYLQMNSLKPEDTAVYYCARVRYYGALKLYAYDHWGQGTQVTVSS”: the “polyreactivity (PSR sort gate)” value is recorded as “high polyreactivity”.

Take “QVQLVESGGGLDQAGGSLRLSCAASGSIFRPYTMGWYRQAPGKERELVAAITGTCGSTRYADSVKGRFTISRDNAKNTVYLQMNSLNPEDNAVYYCAVYPPYRGRYDYRKYDSWGQGTQVTVSS”: the “polyreactivity (PSR sort gate)” value is reported as “low polyreactivity”.

Turning to “QVQLVESGGGLDQAGGSLRLSCAASGSIFRYYAMGWYRQAPGKEREFVASITYRGGRTYYADSVKGRFTISRDNAKNTVYLQMNSLKPEDTAVYYCAARTRAGAWTSKYHDYWGQGTQVTVSS”, the “polyreactivity (PSR sort gate)” value was “high polyreactivity”.

On to “QVQLVESGGGLDQAGGSLRLSCAASGSIFRYYVMGWYRQAPGKERELVAAISWSGGTTYYADSVKGRFTISRDNAKNTVYLQMNSLKPEDTAVYYCAAKGPLGYYHATDYHDYWGQGTQVTVSS”, for which the “polyreactivity (PSR sort gate)” value is “high polyreactivity”.

On to “QVQLVESGGGLDQAGGSLRLSCAASGSIFSYYAMGWYRPAPGKERELVADNRWSGGSTYYADSVKGRFTISRDKAKNTVYLQMNSLKPEDTAVYYCNTLYLVYLYWTSPTPSDLFDYWGQGTQVTVSS”, for which the “polyreactivity (PSR sort gate)” value was “low polyreactivity”.

In the case of “QVQLVESGGGLDQAGGSLRLSCAASGSIFSYYAMGWYRQAPGKERELVAAITIRGGRTYYADSVKGRFTISRDNAKNTVYLQMNSLKPEDTAVYYCAADWLNSDPYNYWGQGTQVTVSS”, the “polyreactivity (PSR sort gate)” value was “low polyreactivity”.

For the sequence “QVQLVESGGGLDQAGGSLRLSCAASGSIFTYYAIGWYRQAPGKERELVADISQRGGSTYYADSVKGRFTISRDNAKNTVYLQMISLKPEDTAVYYCATRARYTWRAFEYWGQGTQVNVSS”, the “polyreactivity (PSR sort gate)” value is recorded as “low polyreactivity”.

“QVQLVESGGGLDQAGGSLRLSCAASGSIFVIYAMGWYRQAPGKERELVAAIRFSTGSTYYADSVKGRFTISRDNAKNTVYLQMNSLKPEDTAVYYCAARTFKYGSYAYEYWGQGTQVTVSS”: the “polyreactivity (PSR sort gate)” value is on record as “high polyreactivity”.

With “QVQLVESGGGLDQAGGSLRLSCAASGSIFVTNVMGGYRQAPGKERELVAAISSSGTRTYADSVKGRFTISRDNAKNTVYLQMNSLKTEDTAVYYCAKDYRVWVAATIAHDYWGQGTQVTVSS”, the “polyreactivity (PSR sort gate)” value is “low polyreactivity”.

Regarding “QVQLVESGGGLDQAGGSLRLSCAASGSIFWAYVMGWYRQAPGKERELVARISSGGRTKYADSVKGRFTISRDNAKNTVYLQMNSLKPEDTAVYYCNADASSSPYTDRQYIGADDSWGHGTQVTVSS”, the “polyreactivity (PSR sort gate)” value is recorded as “low polyreactivity”.

As to “QVQLVESGGGLDQAGGSLRLSCAASGSIFYFNAMGWYRQAPGKARELVAAISTSGGSTYADSVKGRFTISRDNAKYTVYLQMNSLKPEDSAVYYFAADYLTSRSRTFDYWGQGTQVTVSS”, the “polyreactivity (PSR sort gate)” value is reported as “low polyreactivity”.

As for “QVQLVESGGGLDQAGGSLRLSCAASGSIFYTNAMGWYRQAPRKERELVAAITSADSTYYADSVKGRFTISRDNANNTVYLQMNSLKPEDTAFYYCANDVYYYYRWYEYWGQGTQVTVSS”, the “polyreactivity (PSR sort gate)” value is reported as “high polyreactivity”.

Take “QVQLVESGGGLDQAGGSLRLSCAASGSIILVNAMGWYRQAPGKERELVAAISWRGGRTRYADSVKGRFTISRDNAKNTVYLQMNSLKPEDTAVYYCAAAGRPVGPRYDYWGQGTQVTVSS”: the “polyreactivity (PSR sort gate)” value is “high polyreactivity”.

In the case of “QVQLVESGGGLDQAGGSLRLSCAASGSTFGTYAMGWYRQAPGKEWQLVADITGSGGSTYYADSVKGRFTISRDNAKNTVYLQMNSLKPEDTAVYYCAGEYGLGDDTAYGYWGQGTQGTVSS”, the “polyreactivity (PSR sort gate)” value is “low polyreactivity”.

Consider “QVQLVESGGGLDQAGGSLRLSCAASGSTFKHNAMGWYRQAPGKERKLVAGISWGGSSTYYADSVKGRFTISRDNAKNTVYLQMNSLKPEDTAVYYCAKGGYRRYGYDYWGQGTQETVSS”, for which the “polyreactivity (PSR sort gate)” value is “low polyreactivity”.

For the sequence “QVQLVESGGGLDQAGGSLRLSCAASGSTFPKYGMGWYRQSPGKDREFVARINWNGGGTYYADSVKGRFTISRDNAKNTVYLQMNSLKPEDTAVYYCAADYEYYYFWDYYWGQGTQVTVSS”, the “polyreactivity (PSR sort gate)” value is reported as “low polyreactivity”.

For the sequence “QVQLVESGGGLDQAGGSLRLSCAASGSTFRQNVKGWYRQAPGKERELVAAISKSGGSTYYADSVKGRFTISRDNAKNTVYLQMNSLKPEDTAVYYCATRQRQRVDNREYYYWGQGTQVTVSS”, the “polyreactivity (PSR sort gate)” value was “high polyreactivity”.

Consider “QVQLVESGGGLDQAGGSLRLSCAASGSTFVGYAMGWYRQAPGKERELVAAISYSGGRTYYADSVKGRFTISRDNAKNTVYLQMNSLKPEDTAVYYCAALVGGSGWWGRDYWGQGTQVTVSS”, for which the “polyreactivity (PSR sort gate)” value is on record as “high polyreactivity”.

As for “QVQLVESGGGLDQAGGSLRLSCAASGSTFVVNAMGWYRQAPGKERELVAAIRNSGSTTYADSVKGRFTISRDNAKYTVYLQMNSLKPEDTAVYYCATDFSATVTAVQINPYDYWGQGTQVTVSS”, the “polyreactivity (PSR sort gate)” value is on record as “low polyreactivity”.

On to “QVQLVESGGGLDQAGGSLRLSCAASGSTLGRNAMGWYRQAPGKERELVAAISSSSGRTYYADSVKGRFTISRDNAKNTVYLQMNSLKPEDTAVYYCAATHAVARPLEYDYWGQGTQVTVSS”, for which the “polyreactivity (PSR sort gate)” value was “low polyreactivity”.

For the sequence “QVQLVESGGGLDQAGGSLRLSCAASGTFSRNAMGWYRQAPGKERELLADISGGRSTDYADSVKGRFTISRDNAKNTVYLQMNSLKPEDTAVYYCAAYGYLWWEMDYWGQGTQVTVSS”, the “polyreactivity (PSR sort gate)” value is “high polyreactivity”.

Take “QVQLVESGGGLDQAGGSLRLSCAASGYTFFSNAMGWYRQAPGKERELVAAITFSGGSTYYADSVKGRFTISRDNAKNTVYLHMNSLKPEDTAVYYCATRYYYHYPRKHIYNYWGQGTQVTVSS”: the “polyreactivity (PSR sort gate)” value is recorded as “high polyreactivity”.

Consider “QVQLVESGGGLDQAGGSLRLSCAASVSTFLVNTMGWYRQAPGKEREFVAAYADSVKGRFTISRDNAKNTVYLQMNSLKPEYTAVYYCNAGGSEIYRSPFDYWGQGTQVTVSS”, for which the “polyreactivity (PSR sort gate)” value is on record as “low polyreactivity”.

For the sequence “QVQLVESGGGLDQAGGSLRLSCADSGSIFVYYAMGWYRQAPGKERELVAAITTSGGSTYYADSVKGRFTISRDNAKNTVYLQMNSLKPEDTAVYYCAAELLAWYWSYSVPWPYDYWGQGTQVTVSS”, the “polyreactivity (PSR sort gate)” value is listed as “low polyreactivity”.

As for “QVQLVESGGGLDQAGGSLRLSCADSGYTFRAYAMGWYRQAPGKERELVAAITRSGTSTYYADSVKGRFTISRDNAKNTVYLQMNSLKPEDTAVYYCNVDVYLYAKEYDYWGQGTQVTVSS”, the “polyreactivity (PSR sort gate)” value is reported as “high polyreactivity”.

Regarding “QVQLVESGGGLDQAGGSLRLSCASGRIFKKNAMGWYRQAPGNERELVAGITISGGRTYYADSVKGRFTISRDNAKNTVYLQMNSVKPEDTAVYYCNAGPDRRVSYYRLLDHWGQGTQVTVSS”, the “polyreactivity (PSR sort gate)” value is “low polyreactivity”.

With “QVQLVESGGGLDQAGGSLRLSCPASGITFGYNDMGRYRQAPGKERELVAAINRGASTYYADSVKGRFTISRDNAKNTVYLQMYSLKPEDTAVYYCNADHRDTFIWVGLPHMDYWGQGTQVTVSS”, the “polyreactivity (PSR sort gate)” value is reported as “low polyreactivity”.

Take “QVQLVESGGGLDQAGGSLRLSSAASGRTVDIYAMGWYRQAPWKEWELVAAITRGGSTYYADSVKGRFTISRDNAKNTVYLQMNCLIPEDTAVYYCSAKLGTGYRRWYDYWGQGTQVTVSS”: the “polyreactivity (PSR sort gate)” value was “high polyreactivity”.

In the case of “QVQLVESGGGLDQAGGSRRLSCAASGSTFSSYAMGWYSQAPGQARELVAVITASGGSTYYADSVKGRFTISRDNPKNTVYLQMNSLKPDDTAVYYCAADPRSGDQYGKGDYWGQGTQVTGSS”, the “polyreactivity (PSR sort gate)” value was “low polyreactivity”.

On to “QVQLVESGGGLDQAGSSLSLSCDSSGRIFYGYAMGWYRQEPGKERELVAAISWRGGRTYYADSVKGRFTISRDNAKNTVYLQMNRLIPEDTAVYYCNKDFPPQGKLLNMYYWGQGTQVTLSS”, for which the “polyreactivity (PSR sort gate)” value was “high polyreactivity”.

As to “QVQLVESGGGLDQAGVSLRLSCAASGRTFGGYAMGWYRQAPGKERELVASITSGGSTYYADSVKGRFTISRDNAKNTVYLQMNSLKPEDTAVYYCAADTYFETSTRAIPTNDYWGQGTQVTVSS”, the “polyreactivity (PSR sort gate)” value is listed as “low polyreactivity”.

On to “QVQLVESGGGLDQARGSLRLSCAASGRIFELYAMGWYRQAPGKERELVAAITSSGGTTYYADSVKGRFTISRDNAKNTVYLQMNSLKPEDTAVYYCNTVYATRYDYWGQGTQVTVSS”, for which the “polyreactivity (PSR sort gate)” value is “high polyreactivity”.

As for “QVQLVESGGGLDQARGSLRLSCAASGRTFRYYAMGWYRQAPWKERELVAAISSRGTRTYYADSVKGRFTISRDNAKNTVYLQMNSLKPEDTAVYYCATRYYQELSYDYWGQGTQVIVSS”, the “polyreactivity (PSR sort gate)” value is on record as “high polyreactivity”.

With “QVQLVESGGGLDQARGSLRLSCAASGSTFGRYAIGWYRQAHGKERELVAAINSRGGRTYYADSVKGRFTISRDNAKNTVYLQMNSLKPEVTAVYYCAAPTGPKGYYSDRGDSWGQGTQVTLSS”, the “polyreactivity (PSR sort gate)” value is listed as “low polyreactivity”.

Regarding “QVQLVESGGGLDQARGTLSLICAASGSIFRHYAMGWYRQAPWKERELVAAISGSGATTYYADSVKGRFTISRDNAKNTVYLQMKSLKPVDNAVYYCAARTTYITTWVYRHNYTYYYWGQGTQVTVSS”, the “polyreactivity (PSR sort gate)” value is given as “high polyreactivity”.

On to “QVQLVESGGGLDQEGGSLRLSCAASGSTFAVHVMGWYRHAPGKERELVATITYRDGRTYYADSVKGRFTISRDNANNTVYLQMNSLKPEDTAVYYCAADWYTTYDYWGQGTQVTVSS”, for which the “polyreactivity (PSR sort gate)” value is listed as “low polyreactivity”.

For “QVQLVESGGGLEQAGGSLRLSCAASGLIFRGYVMGWYRPAPGKERELVAAISRRGVNTYYADSVKGRFTISRDNSKNTVYLQMNSLKPEDTAVYYCAAETHVGWPAKFDYWGQGTQVTVSS”, the “polyreactivity (PSR sort gate)” value is on record as “high polyreactivity”.

Take “QVQLVESGGGLEQAGGSLRLSCAASGLTFSAYVMAWYRLAPGKERELVAAISRRGGSTYYAYSVKGRFTISRDNAKNTVYLQMNSLKPEDTAVYYCAARKVAVRGYGYWGQGTQVTVSS”: the “polyreactivity (PSR sort gate)” value is on record as “high polyreactivity”.

Take “QVQLVESGGGLFKAGGSLRLSSAASGSIFQNYDMGWYRQAPGNERELVAAISSSGDTYYADSVKGRFTISLDNAKNTVYLQMNSLKPEDTAVYYCAATYPYSLYYPYYGGDYDYWGQGTQVTVSS”: the “polyreactivity (PSR sort gate)” value is recorded as “low polyreactivity”.

The values above are taken from the nanobody polyreactivity screen of Harvey et al. (2022).
